{
  "source": "patent US11260100B2",
  "about": "“Compositions targeting the interaction domain between p27Kip1 and Brk and methods of use thereof to inhibit p27 Y phosphorylation and cdk4 activity” (The Research Foundation for the State University of New York, priority 2014, dated 2022)",
  "key": {"[1]": {"tested_on": "MCF-7 inducible ALT cells", "experiment": "Mouse xenograft model, MCF7-ALT tumors", "format": "in vivo, NOD/SCID mice", "settings": "day 17; start volume 200 mm3; Palbociclib 100 mg/kg daily gavage, doxycycline 0.1 mg/ml in drinking water", "method": "FIG. 14: ALT slows tumor growth in animals, and ALT and PD dual treatment causes tumor regression. MCF-7 inducible ALT cells were injected into the 4th mammary gland of NOD/SCID mice. Tumors were allowed to develop to a volume of 200 mm3, before treatment. Vehicle: daily gavage with PBS. PD: Daily gavage of Palbociclib 100 mg/kg. Doxy: 0.1 mg/ml doxycycline added to the drinking water to allow continuous uptake and induction of ALT in the human cancer cells. Doxy+PD: Daily gavage of Palbociclib 100 mg/kg and 0.1 mg/ml doxycycline added to the drinking water. Vehicle treated animals rapidly progressed and by 17 days, tumor volumes were >3000 mm PD treatment slowed down tumor growth but by day 17, tumors were >2500. […] However, dual ALT and PD (doxy/PD) treatment, caused tumor regression by […] (e.g., from 200 mm3 down to 0-40 mm3), by day 5, which was durable up to day 19.\nNP-ALT was added to cell media in the absence of fetal bovine serum for 6 hours. This media was removed and replaced with FBS+media, and cells were allowed to recover for 2 days, at which time, cell counts were determined. Counts were standardized to the proliferation seen in the NO FBS untreated control. • Expression in vivo. […] Tumor volume was monitored every other day using digital calipers. […] Doxy+PD: Daily gavage of Palbociclib 100 mg/kg and 0.1 mg/ml doxycycline added to the drinking water. • Quantitative RT-PCR. […]"}, "[2]": {"target": "T1, cdk4 (Homo sapiens, UniProt P11802)", "T1 construct": "added to or expressed in MCF7 breast cancer cells on day 2 post plating; endogenous in cells; host or cells: MCF7 (ALT-MCF7 tetracycline-inducible line)", "T1 sequence (P11802 2-303 limits assumed)": "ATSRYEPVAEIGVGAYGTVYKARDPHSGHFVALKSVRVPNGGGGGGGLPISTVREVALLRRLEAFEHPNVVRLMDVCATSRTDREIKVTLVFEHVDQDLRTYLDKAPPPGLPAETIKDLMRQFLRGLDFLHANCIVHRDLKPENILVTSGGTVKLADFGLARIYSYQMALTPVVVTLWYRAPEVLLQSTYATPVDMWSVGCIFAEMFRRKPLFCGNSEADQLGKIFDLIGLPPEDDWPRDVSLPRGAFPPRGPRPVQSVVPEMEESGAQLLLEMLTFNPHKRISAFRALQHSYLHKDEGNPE", "T1 sequence (P24385 whole entry partner)": "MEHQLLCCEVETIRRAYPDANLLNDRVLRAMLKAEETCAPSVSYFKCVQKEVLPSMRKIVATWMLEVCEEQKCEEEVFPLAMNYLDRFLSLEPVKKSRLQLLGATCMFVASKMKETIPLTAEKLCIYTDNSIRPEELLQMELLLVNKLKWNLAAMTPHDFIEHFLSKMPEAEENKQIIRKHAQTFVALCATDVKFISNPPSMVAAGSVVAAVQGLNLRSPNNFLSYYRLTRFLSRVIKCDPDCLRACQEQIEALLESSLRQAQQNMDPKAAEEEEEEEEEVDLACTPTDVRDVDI", "experiment": "Immunoblot of pRBser780 as measure of active cdk4 (FIG. 10)", "format": "cell-based", "settings": "MCF7, drugs at IC50", "protocol": "ALT, Palbociclib alone or in combination were added to or expressed in MCF7 breast cancer cells on day 2 post plating. […] ALT is expressed from an ALT-MCF7 tetracycline inducible cell line generated in the Blain lab. When tetracycline is added to the cell culture media, ALT is expressed in these cells. Vector: no tetracycline was added, so no ALT induction was detected. Drugs and media were replaced every two days. Cells were harvested every two days, lysed and used in immunoblot analysis."}},
  "data": [
    {"molecule": "Alt-Brk: alternative splice variant of Brk (SEQ ID NO: 17), 15 KD protein with SH3 domain, lacks kinase domain (protein, listed as Homo sapiens) MVSRDQAHLGPKYVGLWDFKSRTDEELSFRAGDVFHVARKEEQWWWATLLDEAGGAVAQGYVPHNYLAERETVESEPAGHAGCAALQDLAACRGPAAPERGGVLPQPARACELPQGPEPVPRPAAGRALPEARA", "values": [
      {"measurement": "tumor volume", "setting": "[1]", "value": "~1500", "unit": "mm3"},
      {"measurement": "cdk4 activity (pRBser780)", "setting": "[2]", "value": "inhibits cdk4"}
    ]}
  ]
}
